Laboratory results taken from patent US20230151437A1 (Harvard, published 2023).

B1: iPAK4 (fusion of the catalytic domain of the Pak4 kinase and the 38 amino acid iBox domain of its inhibitor Inka1) (other)
chain: MDYKDDDDKSGSEAEDWTAALLNRGRSRQPLVLGDNCFADLVHNWMELPEEFPAAPAVPGPPGPRSPQREPQRVSHEQFRAALQLVVDPGDPRSYLDNFIKIGEGSTGIVCIATVRSSGKLVAVKKMDLRKQQRRELLFNEVVIMRDYQHENVVEMYNSYLVGDELWVVMEFLEGGALTDIVTHTRMNEEQIAAVCLAVLQALSVLHAQGVIHRDIKSDSILLTHDGRVKLSDFGFCAQVSKEVPRRKSLVGTPYWMAPELISRLPYGPEVDIWSLGIMVIEMVDGEPPYFNEPPLKAMKMIRDNLPPRLKNLHKVSPSLKGFLDRLLVRDPAQRATAAELLKHPFLAKAGPPASIVPLMRQNRTR
notes: also called ibox-PAK4cat; CMV::iPAK4

Legend:
[1] = target: B1; test: co-expression in HEK cells; fluorescence imaging of HT-iPAK4 incorporated into iPAK4 assemblies
Method: To assess the suitability of iPAK4 assemblies as a recording medium, a detailed characterization of their nucleation and growth was performed. CMV::iPAK4 (90%), CMV::eGFP-iPAK4 (5%), and CMV::HT-iPAK4 (5%) were co-expressed in HEK cells using lentiviral transduction, and JF₆₆₉ was added to the medium to label the HT. Time-lapse video microscopy was recorded over a 13 hour interval starting 1 hour after transfection, and over 43 hours starting 20 hours after transfection. The fluorescence of the cytoplasm and the growth of individual assemblies was then tracked. Initially, green (eGFP) and red (HT-JF₆₆₉) fluorescence accumulated in the cytoplasm. Upon nucleation, assemblies grew quickly (˜0.5 μm/min) at first, while the cytoplasmic fluorescence dropped. This phase typically lasted approximately 1 h. The assemblies then transitioned to slower linear growth (FIG. 1E). […] A simple mass-action kinetic model predicted the two-phase growth profiles and quantitatively reproduced the observed growth profiles (Calculation 1, FIGS. 7A-7E).

[2] = target: the molecule itself; test: time-lapse fluorescence microscopy of intracellular self-assembly in cultured rat hippocampal neurons

binding result [1]	Binder	binding result [2]
binds	HaloTag-iPAK4 (other, also called HT-iPAK4; CMV::HT-iPAK4) MIGTGFPFDPHYVEVLGERMHYVDVGPRDGTPVLFLHGNPTSSYVWRNIIPHVAPTHRCIAPDLIGMGKSDKPDLGYFFDDHVRFMDAFIEALGLEEVVLVIHDWGSALGFHWAKRNPERVKGIAFMEFIRPIPTWDEWPEFARETFQAFRTTDVGRKLIIDQNVFIEGTLPMGVVRPLTEVEMDHYREPFLNPVDREPLWRFPNELPIAGEPANIVALVEEYMDWLHQSPVPKLLFWGTPGVLIPPAEAARLAKSLPNCKAVDIGPGLNLLQEDNPDLIGSEIARWLSTLEISGEPTTSGSEAEDWTAALLNRGRSRQPLVLGDNCFADLVHNWMELPEEFPAAPAVPGPPGPRSPQREPQRVSHEQFRAALQLVVDPGDPRSYLDNFIKIGEGSTGIVCIATVRSSGKLVAVKKMDLRKQQRRELLFNEVVIMRDYQHENVVEMYNSYLVGDELWVVMEFLEGGALTDIVTHTRMNEEQIAAVCLAVLQALSVLHAQGVIHRDIKSDSILLTHDGRVKLSDFGFCAQVSKEVPRRKSLVGTPYWMAPELISRLPYGPEVDIWSLGIMVIEMVDGEPPYFNEPPLKAMKMIRDNLPPRLKNLHKVSPSLKGFLDRLLVRDPAQRATAAELLKHPFLAKAGPPASIVPLMRQNRTR	–
–	B1	binds
